The test deals with T1, CD13 (human, UniProt P15144 2-967).
T1 construct: whole, on cells; Endogenous CD13 on the cell membrane, detected with PE-labeled anti-human CD13 antibody clone WM-15; also called human CD13
In words: Example 2 incubated with HT-1080 cells, anti-FITC immunoprecipitation, Western blot with anti-CD13 antibody WM-15. As to the method: Example 2 (80 μg/400 μL) reacted to HT-1080 cells (40 million cells) at 4° C. for 2 hours. The cells were then washed with PBS, and centrifuged. The centrifuged cells were dissolved in 1,000 μL of IP Lysis/Wash buffer (Thermo Fisher Scientific) with Halt Protease & Phosphatase inhibitor Single-Use Cocktail, ETDA-Free (Thermo Fisher Scientific) (10 μL) at 4° C. for 5 minutes. It was centrifuged at 4° C. for 10 minutes and the supernatant was collected. The supernatant was adjusted to be 1 mg in amount of protein and 80 μL of A/G agarose was added to it. The mixture was stirred at 4° C. for 1 hour and then centrifuged for 1 minute. Thus, a pre-treatment solution was obtained. 10 μg of IgG Fraction Monoclonal Mouse Anti-Fluorescein (FITC) (Jackson ImmunoResearch) or 10 μg of Mouse IgG Isotype Control (Thermo Fisher Scientific) was each added to the pre-treatment solution (1 mg/600 μL), and the mixtures were shaken at 4° C. overnight. Subsequently, 20 μL of A/G agarose was added and the mixtures were shaken at 4° C. for 2 hours. The mixtures were washed three times with the wash buffer described above and 20 μL of 2×Non-reducing Lane Marker Sample Buffer (Thermo Fisher Scientific) was added to the A/G agaroses. […]
The 10% solution used in immunoprecipitation was loaded to the left lane of FIG. 3. […] CD13 was not detected on the right lane, but CD 13 was detected on the center lane.

Data on one molecule can be found in patent US20230210940A1 (published 2023).

No end group written: not given here. *: point of attachment. FITC = O=C1OC2(c3ccc(O)cc3Oc3cc(O)ccc32)c2ccc(NC(=S)*)cc21; Ahx = NCCCCCC(=O)O

T1 sequence (P15144 2-967): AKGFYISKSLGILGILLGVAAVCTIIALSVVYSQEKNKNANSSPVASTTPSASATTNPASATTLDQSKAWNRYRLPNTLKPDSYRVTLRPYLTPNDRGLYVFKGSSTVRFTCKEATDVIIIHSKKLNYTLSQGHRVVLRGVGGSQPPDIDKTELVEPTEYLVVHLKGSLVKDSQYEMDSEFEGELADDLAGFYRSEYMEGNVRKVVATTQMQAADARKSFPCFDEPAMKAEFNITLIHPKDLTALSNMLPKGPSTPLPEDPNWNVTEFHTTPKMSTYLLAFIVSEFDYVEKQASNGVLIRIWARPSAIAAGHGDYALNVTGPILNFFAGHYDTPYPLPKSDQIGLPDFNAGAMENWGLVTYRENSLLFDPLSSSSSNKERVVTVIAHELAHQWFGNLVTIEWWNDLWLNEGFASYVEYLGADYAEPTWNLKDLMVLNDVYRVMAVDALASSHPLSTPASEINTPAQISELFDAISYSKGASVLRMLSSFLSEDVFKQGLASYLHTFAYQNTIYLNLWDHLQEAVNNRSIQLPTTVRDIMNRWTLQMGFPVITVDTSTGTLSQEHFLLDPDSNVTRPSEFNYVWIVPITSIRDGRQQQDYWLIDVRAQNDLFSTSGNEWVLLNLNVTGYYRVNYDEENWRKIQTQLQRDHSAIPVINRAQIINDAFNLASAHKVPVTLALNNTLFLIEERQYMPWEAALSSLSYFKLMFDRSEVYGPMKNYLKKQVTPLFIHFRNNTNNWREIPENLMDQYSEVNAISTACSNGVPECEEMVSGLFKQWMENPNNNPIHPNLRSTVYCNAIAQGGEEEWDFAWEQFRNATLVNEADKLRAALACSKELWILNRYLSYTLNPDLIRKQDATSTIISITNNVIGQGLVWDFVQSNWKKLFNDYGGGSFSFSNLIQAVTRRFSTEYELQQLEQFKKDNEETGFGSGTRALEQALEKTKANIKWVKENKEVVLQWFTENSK

B1: Example 2 (peptide of SEQ ID NO: 1 labeled with FITC; SEQ ID NO: 32 with a FITC sequence added to the N-terminus thereof) (peptide)
peptide: {FITC-Ahx}-KDNRGNLLQCVCTGNGRGEWKC
modifications: cysteine pairing not given here
With B1, the binding result was “binds”.
